# B1: Partner and localizer of BRCA2 (Homo sapiens), Q86YC2 (parent)
# chain: MDEPPGKPLSCEEKEKLKEKLAFLKREYSKTLARLQRAQRAEKIKHSIKKTVEEQDCLSQQDLSPQLKHSEPKNKICVYDKLHIKTHLDEETGEKTSITLDVGPESFNPGDGPGGLPIQRTDDTQEHFPHRVSDPSGEQKQKLPSRRKKQQKRTFISQERDCVFGTDSLRLSGKRLKEQEEISSKNPARSPVTEIRTHLLSLKSELPDSPEPVTEINEDSVLIPPTAQPEKGVDTFLRRPNFTRATTVPLQTLSDSGSSQHLEHIPPKGSSELTTHDLKNIRFTSPVSLEAQGKKMTVSTDNLLVNKAISKSGQLPTSSNLEANISCSLNELTYNNLPANENQNLKEQNQTEKSLKSPSDTLDGRNENLQESEILSQPKSLSLEATSPLSAEKHSCTVPEGLLFPAEYYVRTTRSMSNCQRKVAVEAVIQSHLDVKKKGFKNKNKDASKNLNLSNEETDQSEIRMSGTCTGQPSSRTSQKLLSLTKVSSPAGPTEDNDLSRKAVAQAPGRRYTGKRKSACTPASDHCEPLLPTSSLSIVNRSKEEVTSHKYQHEKLFIQVKGKKSRHQKEDSLSWSNSAYLSLDDDAFTAPFHRDGMLSLKQLLSFLSITDFQLPDEDFGPLKLEKVKSCSEKPVEPFESKMFGERHLKEGSCIFPEELSPKRMDTEMEDLEEDLIVLPGKSHPKRPNSQSQHTKTGLSSSILLYTPLNTVAPDDNDRPTTDMCSPAFPILGTTPAFGPQGSYEKASTEVAGRTCCTPQLAHLKDSVCLASDTKQFDSSGSPAKPHTTLQVSGRQGQPTCDCDSVPPGTPPPIESFTFKENQLCRNTCQELHKHSVEQTETAELPASDSINPGNLQLVSELKNPSGSCSVDVSAMFWERAGCKEPCIITACEDVVSLWKALDAWQWEKLYTWHFAEVPVLQIVPVPDVYNLVCVALGNLEIREIRALFCSSDDESEKQVLLKSGNIKAVLGLTKRRLVSSSGTLSDQQVEVMTFAEDGGGKENQFLMPPEETILTFAEVQGMQEALLGTTIMNNIVIWNLKTGQLLKKMHIDDSYQASVCHKAYSEMGLLFIVLSHPCAKESESLRSPVFQLIVINPKTTLSVGVMLYCLPPGQAGRFLEGDVKDHCAAAILTSGTIAIWDLLLGQCTALLPPVSDQHWSFVKWSGTDSHLLAGQKDGNIFVYHYS
# partner: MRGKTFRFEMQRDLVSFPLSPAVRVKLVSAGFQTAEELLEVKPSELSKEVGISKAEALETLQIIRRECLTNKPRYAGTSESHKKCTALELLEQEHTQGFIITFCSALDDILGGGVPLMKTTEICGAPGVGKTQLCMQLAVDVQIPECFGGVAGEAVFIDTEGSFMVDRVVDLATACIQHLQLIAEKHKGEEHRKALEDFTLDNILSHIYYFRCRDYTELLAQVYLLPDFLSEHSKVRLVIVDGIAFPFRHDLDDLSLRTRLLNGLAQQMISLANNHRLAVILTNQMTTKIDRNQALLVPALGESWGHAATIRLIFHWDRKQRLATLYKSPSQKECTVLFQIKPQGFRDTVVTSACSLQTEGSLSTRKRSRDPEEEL
# B2: Partner and localizer of BRCA2 (Homo sapiens), Q86YC2 (parent)
# chain: B1 chain
# partner: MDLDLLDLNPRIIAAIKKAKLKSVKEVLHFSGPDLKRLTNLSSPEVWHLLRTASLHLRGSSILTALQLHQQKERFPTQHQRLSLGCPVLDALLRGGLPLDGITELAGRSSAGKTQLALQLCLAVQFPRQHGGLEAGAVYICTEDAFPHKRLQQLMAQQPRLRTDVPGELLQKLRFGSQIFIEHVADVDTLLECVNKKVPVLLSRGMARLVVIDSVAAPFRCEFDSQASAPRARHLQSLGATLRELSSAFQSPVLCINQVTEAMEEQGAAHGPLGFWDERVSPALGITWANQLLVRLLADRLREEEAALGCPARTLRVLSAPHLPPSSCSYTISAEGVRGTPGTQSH
# B3: Partner and localizer of BRCA2 (Homo sapiens), Q86YC2 (parent)
# chain: B1 chain
# Variants of: B1
# Details: with ra51c_human RAD51C
row,Variant,effect of a mutation on the interaction
1,T1030I,decreasing interaction

# Variants of: B2
# Details: with xrcc3_human XRCC3, O43542
row,Variant,effect of a mutation on the interaction
1,L939W,decreasing interaction

# Variants of: B3
# Details: with rad51_human RAD51, Q06609
# Sequence of rad51_human RAD51, Q06609 (Q06609 whole entry): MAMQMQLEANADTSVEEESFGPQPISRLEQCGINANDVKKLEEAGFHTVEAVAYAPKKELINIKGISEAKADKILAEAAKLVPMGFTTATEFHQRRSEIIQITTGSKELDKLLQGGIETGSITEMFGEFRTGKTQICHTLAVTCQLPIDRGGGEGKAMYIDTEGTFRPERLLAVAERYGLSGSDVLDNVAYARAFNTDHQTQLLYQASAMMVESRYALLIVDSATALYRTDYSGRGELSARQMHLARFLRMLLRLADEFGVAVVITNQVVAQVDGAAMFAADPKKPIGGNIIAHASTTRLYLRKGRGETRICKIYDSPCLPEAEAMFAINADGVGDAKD
row,Variant,effect of a mutation on the interaction
1,T1030I,decreasing interaction
2,L939W,decreasing interaction

# Source: IntAct's records for PubMed 24141787
